Patent US9260500B2, “Peptide and use thereof” (Takeda Pharmaceutical Company Limited, priority 2009, dated 2016)
Starred links: 1 amine or outer side, 2 acyl side, 3 side chain; linkers in the order of their positions; H or OH if unused. Non-standard residues stand in square brackets, D forms with d. *: point of attachment. X1 = ((1S)-1-carboxy-2-(4-hydroxyphenyl)ethyl)carbamoyl, O=C(O)[C@H](Cc1ccc(O)cc1)NC(=O)*; X2 = (tetrahydro-2H-pyran-4-ylmethyl)carbamoyl, O=C(NCC1CCOCC1)*; (2-Carboxyethyl)carbamoyl = O=C(O)CCNC(=O)*; (carboxymethyl)carbamoyl = O=C(O)CNC(=O)*; Imidazole4carbonyl = O=C(c1cnc[nH]1)*; tBuAla = CC(C)(C)C[C@H](N)C(=O)O; 4Pal = N[C@@H](Cc1ccncc1)C(=O)O; dHyp = O=C(O)[C@H]1C[C@H](O)CN1; Cha = N[C@@H](CC1CCCCC1)C(=O)O; Suc = O=C(CCC(=O)[*:2])[*:1]; dIva = CC[C@@](C)(N)C(=O)O; Iva = CC[C@](C)(N)C(=O)O; Aib = CC(C)(N)C(=O)O

How the values were obtained:
[1] = target: T1, human Y2 receptor (Homo sapiens, UniProt P49146); assay: Human Y2 Receptor G Protein Binding Assay (GBA), [35S]GTPγS; format: biochemical; conditions: EC50 of test compound/EC50 of PYY(3-36) (PYY3-36 taken as 1), hY2R/CHO membrane fraction
T1 construct: expressed in transfected cells; membrane fraction
T1 sequence (P49146 1-381): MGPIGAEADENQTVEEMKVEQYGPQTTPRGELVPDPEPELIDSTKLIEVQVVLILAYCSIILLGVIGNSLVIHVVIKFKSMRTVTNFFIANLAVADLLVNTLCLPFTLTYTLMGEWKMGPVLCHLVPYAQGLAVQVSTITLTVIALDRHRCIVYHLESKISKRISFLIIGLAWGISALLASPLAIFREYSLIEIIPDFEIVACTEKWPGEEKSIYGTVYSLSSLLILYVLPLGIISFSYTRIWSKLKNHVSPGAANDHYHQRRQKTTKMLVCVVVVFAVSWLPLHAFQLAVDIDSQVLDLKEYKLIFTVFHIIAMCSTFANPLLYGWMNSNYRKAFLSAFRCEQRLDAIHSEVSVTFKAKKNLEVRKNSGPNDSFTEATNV
In short: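 Agonism measured as [35S]GTPγS binding, read by GF/C filtration and scintillation counting after 120 min at room temperature, using human Y2 membranes at 1 μg protein/mL in pH 7.4 Tris/MgCl2/NaCl/GDP buffer. Compound serially diluted 100 μM–1 nM; EC50 normalized to PYY(3-36) (ratio = compound/PYY).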

[2] = test system: male C57EL/6J mice; assay: 3-Days Continuous Subcutaneous Administration Test-1 (food intake suppressing activity); format: in vivo, mouse; conditions: 0.03 mg/kg/day, subcutaneous Alzet pump, food consumption over 3 days; relative to food intake suppression rate for PYY(3-36) (1 mg/kg/day) taken as 100%
Description: (4) Test Method: 3-Days Continuous Subcutaneous Administration Test-1
The food intake suppressing activity of the compound of the present invention was examined by the method described below.
The test compound was dissolved in 50% DMSO so that sustained release would occur at 0.03 mg/kg/day, and the solution was filled in the Alzet Pump (Alzet model: 1003D, sustained release rate: 1 μL/hr, capacity: 100 μL). After the filling, the pump was placed in a 2 mL Eppendorf tube containing 330 μL of physiological saline, and incubated at 37° C. for 2 hours or more. Thereafter, this pump was subcutaneously embedded in the back of each mouse by the method described below. After weighing, each male […] mice at 12-13 weeks of age (25° C., allowed to take food and water ad libitum; 12-hour bright-12-hour dark cycle, lighting turned on at 08:00) was anesthetized with diethyl ether; the skin in the upper back thereof was incised, and the above-mentioned pump was embedded subcutaneously. Thereafter, several drops of penicillin solution (100000 units/mL) were added to the incised part, and the incision was sutured using Michel's surgical needle. This mouse was returned to the rearing cage (reared alone), and given previously weighed food; 3 days later, the amount of remaining food was measured. Food consumption was calculated by subtracting the amount of remaining food after 3 days from the weight of the food given on the day of pump embedding. The food intake suppressing activity of each test compound was expressed as a food intake suppression rate (%) relative to the food intake suppression rate for PYY(3-36) (1 mg/kg/day) taken as 100%.

[3] = target: T1, human Y2 receptor; assay: Receptor Binding Assay (RBA) for Human Y2, [125I]-PYY displacement on hY2R/CHO membrane fraction; conditions: IC50 of test compound/IC50 of PYY(3-36) (PYY(3-36) taken as 1)
In short: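 hY2R stably expressed in CHO/dhfr− cells; membrane fraction prepared from cells disrupted in 10 mM NaHCO3, 5 mM EDTA buffer with protease inhibitors. Binding read as displacement of [125I]-PYY.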

Substance | GBA EC50 Ratio [1] | RBA IC50 Ratio [3] | food intake suppression rate (%) [2]
3-Carboxypropionyl-[D-Hyp24, Iva25, Pya(4)26, Cha27,36, Leu(Me)28, Lys30, Aib31]-PYY(23-36) (Suc-S[dHyp][Iva][4Pal][Cha][tBuAla]NK[Aib]TRQR[Cha]-NH2; SMILES CC[C@](C)(NC(=O)[C@H]1C[C@H](O)CN1C(=O)[C@H](CO)NC(=O)CCC(=O)O)C(=O)N[C@@H](Cc1ccncc1)C(=O)N[C@@H](CC1CCCCC1)C(=O)N[C@@H](CC(C)(C)C)C(=O)N[C@@H](CC(N)=O)C(=O)N[C@@H](CCCCN)C(=O)NC(C)(C)C(=O)N[C@H](C(=O)N[C@@H](CCCNC(=N)N)C(=O)N[C@@H](CCC(N)=O)C(=O)N[C@@H](CCCNC(=N)N)C(=O)N[C@@H](CC1CCCCC1)C(N)=O)[C@@H](C)O) [compound No. 350] | 1.9 | 0.92 | 41%
4-Imidazolecarbonyl-[D-Hyp24, Iva25, Pya(4)26, Cha27,36, Aib28,31, Lys30]-PYY(23-36) (Imidazole4carbonyl-S[dHyp][Iva][4Pal][Cha][Aib]NK[Aib]TRQR[Cha]-NH2; SMILES CC[C@](C)(NC(=O)[C@H]1C[C@H](O)CN1C(=O)[C@H](CO)NC(=O)c1cnc[nH]1)C(=O)N[C@@H](Cc1ccncc1)C(=O)N[C@@H](CC1CCCCC1)C(=O)NC(C)(C)C(=O)N[C@@H](CC(N)=O)C(=O)N[C@@H](CCCCN)C(=O)NC(C)(C)C(=O)N[C@H](C(=O)N[C@@H](CCCNC(=N)N)C(=O)N[C@@H](CCC(N)=O)C(=O)N[C@@H](CCCNC(=N)N)C(=O)N[C@@H](CC1CCCCC1)C(N)=O)[C@@H](C)O) [compound No. 299] | 0.92 | 1.3 | 46%
Ac-[D-Iva24, Pya(4)26, Cha27,36, Aib28,31, Lys30]-PYY(23-36) (Ac-S[dIva]R[4Pal][Cha][Aib]NK[Aib]TRQR[Cha]-NH2; SMILES CC[C@@](C)(NC(=O)[C@H](CO)NC(C)=O)C(=O)N[C@@H](CCCNC(=N)N)C(=O)N[C@@H](Cc1ccncc1)C(=O)N[C@@H](CC1CCCCC1)C(=O)NC(C)(C)C(=O)N[C@@H](CC(N)=O)C(=O)N[C@@H](CCCCN)C(=O)NC(C)(C)C(=O)N[C@H](C(=O)N[C@@H](CCCNC(=N)N)C(=O)N[C@@H](CCC(N)=O)C(=O)N[C@@H](CCCNC(=N)N)C(=O)N[C@@H](CC1CCCCC1)C(N)=O)[C@@H](C)O) [compound No. 242] | 1.3 | 0.39 | 25%
4-Imidazolecarbonyl-[D-Hyp24, Iva25, Pya(4)26, Cha27,36, Leu(Me)28, Lys30, Aib31]-PYY(23-36) (Imidazole4carbonyl-S[dHyp][Iva][4Pal][Cha][tBuAla]NK[Aib]TRQR[Cha]-NH2; ends and bridges not checked) [compound No. 336] | 1.4 | 0.75 | 52%
[(1S)-1-Carboxy-2-(4-hydroxyphenyl)ethyl]carbamoyl-[D-Pro24, Pya(4)26, Cha27,36, Aib28,31, Lys30]-PYY(23-36) (X1-S[dP]R[4Pal][Cha][Aib]NK[Aib]TRQR[Cha]-NH2; SMILES C[C@@H](O)[C@H](NC(=O)C(C)(C)NC(=O)[C@H](CCCCN)NC(=O)[C@H](CC(N)=O)NC(=O)C(C)(C)NC(=O)[C@H](CC1CCCCC1)NC(=O)[C@H](Cc1ccncc1)NC(=O)[C@H](CCCNC(=N)N)NC(=O)[C@H]1CCCN1C(=O)[C@H](CO)NC(=O)N[C@@H](Cc1ccc(O)cc1)C(=O)O)C(=O)N[C@@H](CCCNC(=N)N)C(=O)N[C@@H](CCC(N)=O)C(=O)N[C@@H](CCCNC(=N)N)C(=O)N[C@@H](CC1CCCCC1)C(N)=O) [compound No. 285] | 1.2 | 0.95 | 28%

Now from value to substance, other results behind:

GBA EC50 Ratio [1] | RBA IC50 Ratio [3] | Substance | food intake suppression rate (%) [2]
1.2 | 0.76 | Ac-[D-Pro24, Iva25, Pya(4)26, Cha27,36, Leu(Me)28, Lys30, Aib31]-PYY(23-36) [compound No. 295] | 52%
1.6 | 3.0 | (Carboxymethyl)carbamoyl-[D-Pro24, Iva25, Pya(4)26, Cha27,36, Aib28,31, Lys30]-PYY(23-36) ({(carboxymethyl)carbamoyl}-S[dP][Iva][4Pal][Cha][Aib]NK[Aib]TRQR[Cha]-NH2; SMILES CC[C@](C)(NC(=O)[C@H]1CCCN1C(=O)[C@H](CO)NC(=O)NCC(=O)O)C(=O)N[C@@H](Cc1ccncc1)C(=O)N[C@@H](CC1CCCCC1)C(=O)NC(C)(C)C(=O)N[C@@H](CC(N)=O)C(=O)N[C@@H](CCCCN)C(=O)NC(C)(C)C(=O)N[C@H](C(=O)N[C@@H](CCCNC(=N)N)C(=O)N[C@@H](CCC(N)=O)C(=O)N[C@@H](CCCNC(=N)N)C(=O)N[C@@H](CC1CCCCC1)C(N)=O)[C@@H](C)O) [compound No. 327] | 58%
1.9 | 2.3 | 4-Imidazolecarbonyl-[D-Pro24, Iva25, Pya(4)26, Cha27,30,36, Aib28,31]-PYY(23-36) (Imidazole4carbonyl-S[dP][Iva][4Pal][Cha][Aib]N[Cha][Aib]TRQR[Cha]-NH2; SMILES CC[C@](C)(NC(=O)[C@H]1CCCN1C(=O)[C@H](CO)NC(=O)c1cnc[nH]1)C(=O)N[C@@H](Cc1ccncc1)C(=O)N[C@@H](CC1CCCCC1)C(=O)NC(C)(C)C(=O)N[C@@H](CC(N)=O)C(=O)N[C@@H](CC1CCCCC1)C(=O)NC(C)(C)C(=O)N[C@H](C(=O)N[C@@H](CCCNC(=N)N)C(=O)N[C@@H](CCC(N)=O)C(=O)N[C@@H](CCCNC(=N)N)C(=O)N[C@@H](CC1CCCCC1)C(N)=O)[C@@H](C)O) [compound No. 318] | 18%
0.94 | 1.3 | (2-Carboxyethyl)carbamoyl-[D-Pro24, Pya(4)26, Cha27,36, Aib28,31, Lys30]-PYY(23-36) ({(2-Carboxyethyl)carbamoyl}-S[dP]R[4Pal][Cha][Aib]NK[Aib]TRQR[Cha]-NH2; SMILES C[C@@H](O)[C@H](NC(=O)C(C)(C)NC(=O)[C@H](CCCCN)NC(=O)[C@H](CC(N)=O)NC(=O)C(C)(C)NC(=O)[C@H](CC1CCCCC1)NC(=O)[C@H](Cc1ccncc1)NC(=O)[C@H](CCCNC(=N)N)NC(=O)[C@H]1CCCN1C(=O)[C@H](CO)NC(=O)NCCC(=O)O)C(=O)N[C@@H](CCCNC(=N)N)C(=O)N[C@@H](CCC(N)=O)C(=O)N[C@@H](CCCNC(=N)N)C(=O)N[C@@H](CC1CCCCC1)C(N)=O) [compound No. 326] | 57%
1.9 | 1.7 | (Tetrahydro-2H-pyran-4-ylmethyl)carbamoyl-[D-Pro24, Iva25, Pya(4)26, Cha27,36, Aib28,31, Lys30]-PYY(23-36) (X2-S[dP][Iva][4Pal][Cha][Aib]NK[Aib]TRQR[Cha]-NH2; SMILES CC[C@](C)(NC(=O)[C@H]1CCCN1C(=O)[C@H](CO)NC(=O)NCC1CCOCC1)C(=O)N[C@@H](Cc1ccncc1)C(=O)N[C@@H](CC1CCCCC1)C(=O)NC(C)(C)C(=O)N[C@@H](CC(N)=O)C(=O)N[C@@H](CCCCN)C(=O)NC(C)(C)C(=O)N[C@H](C(=O)N[C@@H](CCCNC(=N)N)C(=O)N[C@@H](CCC(N)=O)C(=O)N[C@@H](CCCNC(=N)N)C(=O)N[C@@H](CC1CCCCC1)C(N)=O)[C@@H](C)O) [compound No. 340] | 27%
